# Assay results from IntAct's records for PubMed 14567693.
# B1: Electrogenic sodium bicarbonate cotransporter 1 (Homo sapiens), Q9Y6R1-1 (parent)
# chain: MEDEAVLDRGASFLKHVCDEEEVEGHHTIYIGVHVPKSYRRRRRHKRKTGHKEKKEKERISENYSDKSDIENADESSSSILKPLISPAAERIRFILGEEDDSPAPPQLFTELDELLAVDGQEMEWKETARWIKFEEKVEQGGERWSKPHVATLSLHSLFELRTCMEKGSIMLDREASSLPQLVEMIVDHQIETGLLKPELKDKVTYTLLRKHRHQTKKSNLRSLADIGKTVSSASRMFTNPDNGSPAMTHRNLTSSSLNDISDKPEKDQLKNKFMKKLPRDAEASNVLVGEVDFLDTPFIAFVRLQQAVMLGALTEVPVPTRFLFILLGPKGKAKSYHEIGRAIATLMSDEVFHDIAYKAKDRHDLIAGIDEFLDEVIVLPPGEWDPAIRIEPPKSLPSSDKRKNMYSGGENVQMNGDTPHDGGHGGGGHGDCEELQRTGRFCGGLIKDIKRKAPFFASDFYDALNIQALSAILFIYLATVTNAITFGGLLGDATDNMQGVLESFLGTAVSGAIFCLFAGQPLTILSSTGPVLVFERLLFNFSKDNNFDYLEFRLWIGLWSAFLCLILVATDASFLVQYFTRFTEEGFSSLISFIFIYDAFKKMIKLADYYPINSNFKVGYNTLFSCTCVPPDPANISISNDTTLAPEYLPTMSSTDMYHNTTFDWAFLSKKECSKYGGNLVGNNCNFVPDITLMSFILFLGTYTSSMALKKFKTSPYFPTTARKLISDFAIILSILIFCVIDALVGVDTPKLIVPSEFKPTSPNRGWFVPPFGENPWWVCLAAAIPALLVTILIFMDQQITAVIVNRKEHKLKKGAGYHLDLFWVAILMVICSLMALPWYVAATVISIAHIDSLKMETETSAPGEQPKFLGVREQRVTGTLVFILTGLSVFMAPILKFIPMPVLYGVFLYMGVASLNGVQFMDRLKLLLMPLKHQPDFIYLRHVPLRRVHLFTFLQVLCLALLWILKSTVAAIIFPVMILALVAVRKGMDYLFSQHDLSFLDDVIPEKDKKKKEDEKKKKKKKGSLDSDNDDSDCPYSEKVPSIKIPMDIMEQQPFLSDSKPSDRERSPTFLERHTSC
# partner: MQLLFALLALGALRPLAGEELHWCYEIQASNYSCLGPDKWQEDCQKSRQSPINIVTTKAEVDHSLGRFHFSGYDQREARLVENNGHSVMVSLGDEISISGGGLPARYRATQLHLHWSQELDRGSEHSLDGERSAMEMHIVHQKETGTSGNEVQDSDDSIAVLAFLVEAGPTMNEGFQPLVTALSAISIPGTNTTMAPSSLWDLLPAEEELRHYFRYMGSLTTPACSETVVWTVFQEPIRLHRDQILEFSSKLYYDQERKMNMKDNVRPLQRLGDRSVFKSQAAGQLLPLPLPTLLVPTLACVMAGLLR
# Variants of: B1
# Settings: with cah4_rabit CA4, P48283
row,effect of a mutation on the interaction,Variant
1,disrupting interaction,G767T
